Measurements: patent US20260184814A1, “BROADLY NE[…] INFLUENZA NEURAMINIDASE” (priority 2022, published 2026)

Legend:
[1] = target: N2 A/HongKong/2671/2019 (Influenza A virus (H3N2))
[2] = target: N2 A/Switzerland/8060/2017 (Influenza A virus (H3N2))

Which results are given for 1G01 Fab?
Kd [1]: < 0.02 nM; Kd [2]: < 0.02 nM
